Reference: patent US20140220596A1 (MEDICINAL BIOCONVERGENCE RESEARCH CENTER, published 2014)
One block for each molecule: values may come before it.

B2: Fc-fused soluble cadherin-6 (extracellular domain of CDH6 fused to the Fc fragment of human IgG1) (Fc fusion)
chain: SWMWNQFFLLEEYTGSDYQYVGKLHSDQDRGDGSLKYILSGDGAGDLFIINENTGDIQATKRLDREEKPVYILRAQAINRRTGRPVEPESEFIIKIHDINDNEPIFTKEVYTATVPEMSDVGTFVVQVTATDADDPTYGNSAKVVYSILQGQPYFSVESETGIIKTALLNMDRENREQYQVVIQAKDMGGQMGGLSGTTTVNITLTDVNDNPPRFPQSTYQFKTPESSPPGTPIGRIKASDADVGENAEIEYSITDGEGLDMFDVITDQETQEGIITVKKLLDFEKKKVYTLKVEASNPYVEPRFLYLGPFKDSATVRIVVEDVDEPPVFSKLAYILQIREDAQINTTIGSVTAQDPDAARNPVKYSVDRHTDMDRIFNIDSGNGSIFTSKLLDRETLLWHNITVIATEINNPKQSSRVPLYIKVLDVNDNAPEFAEFYETFVCEKAKADQLIQTLHAVDKDDPYSGHQFSFSLAPEAASGSNFTIQDNKDNTAGILTRKNGYNRHEMSTYLLPVVISDNDYPVQSSTGTVTVRVCACDHHGNMQSCHAEALIHPTGLSTGA
notes: also called Fc-CDH6; Fc-fused CDH6; not shown: Fc fragment of human IgG1

Experiments:
[1] = target: Fc-fused soluble cadherin-18 (extracellular domain of CDH18 fused to the Fc fragment of human IgG1) (human) (UniProt Q13634); assay: SPR (ProteOn XPR36), Fc-cadherin amine-coupled to GLC chip, GRS as analyte, Langmuir 1:1 model
[2] = target: T1, His-tagged recombinant human glycyl-tRNA synthetase (GRS), 685 amino acids (human, UniProt P41250 55-739); assay: ELISA: plate coated with His-GRS or BSA, Fc-fused cadherin added, detected with anti-human IgG1 Fc-HRP; axis OD 490nm
T1 construct: Expressed in E. coli; also called His-GRS; his-tagged GRS; not shown: His tag from vector pET-28a (EcoRI/XhoI)
T1 sequence: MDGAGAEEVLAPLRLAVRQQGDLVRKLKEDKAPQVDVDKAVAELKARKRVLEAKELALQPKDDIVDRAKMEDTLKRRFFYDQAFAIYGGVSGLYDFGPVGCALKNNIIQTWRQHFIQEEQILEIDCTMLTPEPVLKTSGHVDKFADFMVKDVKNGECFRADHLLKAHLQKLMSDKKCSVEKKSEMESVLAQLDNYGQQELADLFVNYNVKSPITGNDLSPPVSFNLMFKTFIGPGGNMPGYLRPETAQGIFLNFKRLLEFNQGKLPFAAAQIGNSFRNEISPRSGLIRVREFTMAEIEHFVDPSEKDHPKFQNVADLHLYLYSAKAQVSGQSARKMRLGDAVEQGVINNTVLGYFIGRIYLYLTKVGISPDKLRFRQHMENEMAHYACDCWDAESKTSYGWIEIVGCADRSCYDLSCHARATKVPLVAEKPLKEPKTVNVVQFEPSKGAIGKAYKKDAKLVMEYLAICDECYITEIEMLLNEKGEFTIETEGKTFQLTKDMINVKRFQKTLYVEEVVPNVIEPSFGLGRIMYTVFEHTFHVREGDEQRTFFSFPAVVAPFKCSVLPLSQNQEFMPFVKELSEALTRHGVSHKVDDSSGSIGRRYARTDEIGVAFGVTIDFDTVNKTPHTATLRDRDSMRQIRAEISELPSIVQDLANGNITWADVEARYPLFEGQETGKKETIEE
Method: (§1) (A) A panel of Fc-fused soluble cadherin family proteins was bound to His-tagged GRS or to BSA-coated plates, and complexes were detected with the IgG1 Fc-HRP (Thermo) reagent. (B) To confirm the binding between cadherins and GRS, Fc-CDH2, 6 and 18 were incubated with His-GRS. Fc-CDHs were precipitated with protein A/G agarose and co-precipitated GRS was determined by immunoblotting. (C) To calculate the equilibrium dissociation constant (IQ), immobilized Fc-fused (to gold chips) cadherins were incubated with GRS (31.25 nM˜1 uM). Binding of GRS to CDH6 was determined by surface plasmon resonance and expressed as resonance units (RU). (D) To confirm the binding between CDH6 and GRS domain peptides, Fc-CDH6 was incubated with different domains (F1, 2, 3 and 4) of GRS that were expressed as the GST fusion proteins. GST-GRS proteins were precipitated with GSH-sepharose beads and co-precipitated CDH6 was determined by immunoblotting. (E) Five difference cancers cells were determined for the expression of CDH6 by immunoblotting. (F) HCT116 cells were transfected with non-specific siRNA controls (si-con) or two differently designed siRNAs targeting CDH6 (#1 and #2), treated with biotinylated GRS (15 nM), and the binding of GRS was analyzed by immunoblotting. (G) HCT116 cells were transfected with si-con and si-CDH6 as described above, and cell binding of GRS was measured by FACS analysis. (H) HCT116 cells were incubated with His-GRS (150 nM). To neutralize the effects of GRS, Fc-fused CDH6 (300 nM) was added and the cell viability was determined by the MTT assay. Error bars represent standard deviation. (I) The binding between CDH6 and GRS domain peptides was again confirmed by ELISA assay.
To identifying the receptor of GRS, a Maxisorp plate (Nunc, Rochester, N.Y.) was used for an ELISA detection. The plate were coated with purified his-tagged GRS (1 ug/ml) or BSA (1 ug/ml) in phosphate buffer saline and then blocked (PBS, 4% non-fat milk). Fc-fusion cadherin family proteins (1 ug/ml) were added to the plate and after washing with PBST (0.05% Tween20), the plates were incubated with anti-human IgG1 Fc-HRP (Thermo, Waltham, Mass.). […]

[3] = target: T1, His-tagged recombinant human …; assay: SPR (ProteOn XPR36), Fc-cadherin amine-coupled to GLC chip, GRS as analyte, Langmuir 1:1 model
Method: Binding of GRS to CDH6 was determined by surface plasmon resonance and expressed as resonance units (RU). (D) To confirm the binding between CDH6 and GRS domain peptides, Fc-CDH6 was incubated with different domains (F1, 2, 3 and 4) of GRS that were expressed as the GST fusion proteins. GST-GRS proteins were precipitated with GSH-sepharose beads and co-precipitated CDH6 was determined by immunoblotting. (E) Five difference cancers cells were determined for the expression of CDH6 by immunoblotting. (F) HCT116 cells were transfected with non-specific siRNA controls (si-con) or two differently designed siRNAs targeting CDH6 (#1 and #2), treated with biotinylated GRS (15 nM), and the binding of GRS was analyzed by immunoblotting. (G) HCT116 cells were transfected with si-con and si-CDH6 as described above, and cell binding of GRS was measured by FACS analysis. […] To neutralize the effects of GRS, Fc-fused CDH6 (300 nM) was added and the cell viability was determined by the MTT assay. […]
Binding of GRS to the cadherin-Fc fusion proteins was determined by the SPR technique using a ProteOn XPR36 Protein Interaction Array System (BioRad). […] The binding was determined by the change in resonance units (RU), where one resonance unit is defined as 1 pg/mm². The Sensogram was processed by subtracting the binding response recorded from the control surface. […]

[4] = target: B2; assay: GST pull-down with GSH-sepharose, immunoblot for CDH6
Method: as §1, with “(H) HCT116 cells were incubated with His-GRS (150 nM). To neutralize the effects of GRS, Fc-fused CDH6 (300 nM) was added and the cell viability was determined by the MTT assay. Error bars represent standard deviation. (I) The binding between CDH6 and GRS domain peptides was again confirmed by ELISA assay.” left out

B1: Fc-fused soluble cadherin-2 (extracellular domain of CDH2 fused to the Fc fragment of human IgG1) (Fc fusion, UniProt P19022 160-724, looked up)
chain: DWVIPPINLPENSRGPFPQELVRIRSDRDKNLSLRYSVTGPGADQPPTGIFIINPISGQLSVTKPLDREQIARFHLRAHAVDINGNQVENPIDIVINVIDMNDNRPEFLHQVWNGTVPEGSKPGTYVMTVTAIDADDPNALNGMLRYRIVSQAPSTPSPNMFTINNETGDIITVAAGLDREKVQQYTLIIQATDMEGNPTYGLSNTATAVITVTDVNDNPPEFTAMTFYGEVPENRVDIIVANLTVTDKDQPHTPAWNAVYRISGGDPTGRFAIQTDPNSNDGLVTVVKPIDFETNRMFVLTVAAENQVPLAKGIQHPPQSTATVSVTVIDVNENPYFAPNPKIIRQEEGLHAGTMLTTFTAQDPDRYMQQNIRYTKLSDPANWLKIDPVNGQITTIAVLDRESPNVKNNIYNATFLASDNGIPPMSGTGTLQIYLLDINDNAPQVLPQEAETCETPDPNSINITALDYDIDPNAGPFAFDLPLSPVTIKRNWTITRLNGDFAQLNLKIKFLEAGIYEVPIIITDSGNPPKSNISILRVKVCQCDSNGDCTDVDRIVGAGLGTGA
notes: extracellular domain; also called Fc-CDH2; not shown: Fc fragment of human IgG1
binding result [2]: no binding (tested: 1 ug/ml (single concentration))

Molecule: B2
Kd [3]: 3.4 nM

Now from value to molecule:

Kd [1]: 1.25 nM
Molecule: His-tagged recombinant human glycyl-tRNA synthetase (GRS), 685 amino acids (from UniProt P41250 55-739) (enzyme)

binding result [4]: binds
B3: GST-fused GRS fragment F4 (C-terminal anticodon-binding domain, 175 amino acids) (other, not shown: a dimerising Fc or GST; small tags and cut ends)
chain: LYVEEVVPNVIEPSFGLGRIMYTVFEHTFHVREGDEQRTFFSFPAVVAPFKCSVLPLSQNQEFMPFVKELSEALTRHGVSHKVDDSSGSIGRRYARTDEIGVAFGVTIDFDTVNKTPHTATLRDRDSMRQIRAEISELPSIVQDLANGNITWADVEARYPLFEGQETGKKETIEE
notes: also called ABD; GST-GRS F4
